Test results taken from patent US20260250318A1, “COMPOSITIONS AND METHODS FOR CROSSING THE BLOOD BRAIN BARRIER” (VOYAGER THERAPEUTICS, INC., priority 2022, published 2026).
Substitutions are numbered along the chain they refer to.

T1: ALPL (Homo sapiens, UniProt P05186)
T1 construct: expressed in transfected cells; host or cells: HEK 293T
T1 sequence (P05186 whole entry, looked up): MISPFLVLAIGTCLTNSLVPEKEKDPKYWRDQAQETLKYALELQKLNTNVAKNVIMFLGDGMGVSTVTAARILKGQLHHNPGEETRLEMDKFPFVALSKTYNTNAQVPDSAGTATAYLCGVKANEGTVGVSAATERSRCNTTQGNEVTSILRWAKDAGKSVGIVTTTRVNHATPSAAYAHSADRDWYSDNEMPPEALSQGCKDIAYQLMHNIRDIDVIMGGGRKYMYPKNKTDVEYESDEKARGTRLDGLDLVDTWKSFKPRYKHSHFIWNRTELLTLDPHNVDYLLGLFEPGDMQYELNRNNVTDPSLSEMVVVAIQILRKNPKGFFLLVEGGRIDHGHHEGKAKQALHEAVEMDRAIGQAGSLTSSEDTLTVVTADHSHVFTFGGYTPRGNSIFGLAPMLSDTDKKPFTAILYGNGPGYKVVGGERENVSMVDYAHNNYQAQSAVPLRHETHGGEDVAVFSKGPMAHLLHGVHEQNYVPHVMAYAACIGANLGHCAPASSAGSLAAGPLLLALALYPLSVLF

T2: AAVR (Homo sapiens, UniProt Q8IZA0)
T2 construct: expressed in transfected cells; host or cells: HEK 293T
T2 sequence (Q8IZA0 whole entry, looked up): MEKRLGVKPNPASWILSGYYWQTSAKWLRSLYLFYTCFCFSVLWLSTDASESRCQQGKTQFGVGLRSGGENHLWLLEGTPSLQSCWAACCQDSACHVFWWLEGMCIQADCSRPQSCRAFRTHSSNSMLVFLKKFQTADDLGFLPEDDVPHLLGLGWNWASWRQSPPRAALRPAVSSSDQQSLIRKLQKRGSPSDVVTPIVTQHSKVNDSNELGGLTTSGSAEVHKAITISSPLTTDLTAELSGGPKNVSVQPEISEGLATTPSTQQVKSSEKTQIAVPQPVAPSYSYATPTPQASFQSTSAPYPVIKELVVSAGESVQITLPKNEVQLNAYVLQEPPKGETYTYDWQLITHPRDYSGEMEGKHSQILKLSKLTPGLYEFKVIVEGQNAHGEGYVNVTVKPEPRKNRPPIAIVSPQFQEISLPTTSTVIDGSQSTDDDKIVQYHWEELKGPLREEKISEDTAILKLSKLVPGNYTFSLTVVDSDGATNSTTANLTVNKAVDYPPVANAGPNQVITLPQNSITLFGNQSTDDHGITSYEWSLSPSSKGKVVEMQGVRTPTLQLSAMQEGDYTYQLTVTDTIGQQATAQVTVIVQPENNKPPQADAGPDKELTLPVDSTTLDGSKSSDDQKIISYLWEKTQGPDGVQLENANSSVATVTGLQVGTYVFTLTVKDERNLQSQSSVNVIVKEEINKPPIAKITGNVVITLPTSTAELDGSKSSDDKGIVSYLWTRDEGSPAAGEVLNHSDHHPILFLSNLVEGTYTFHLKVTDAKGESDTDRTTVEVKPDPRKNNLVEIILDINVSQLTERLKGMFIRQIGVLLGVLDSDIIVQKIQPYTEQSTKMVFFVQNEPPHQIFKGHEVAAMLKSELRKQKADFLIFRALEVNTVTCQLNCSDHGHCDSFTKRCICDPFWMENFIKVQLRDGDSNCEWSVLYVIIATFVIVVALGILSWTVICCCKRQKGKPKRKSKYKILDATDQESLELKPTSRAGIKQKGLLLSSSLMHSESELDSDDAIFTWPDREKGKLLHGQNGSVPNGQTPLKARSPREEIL

B1: TTM-006: AAV9 capsid variant, full length capsid sequence of Table 4 (protein)
chain: MAADGYLPDWLEDNLSEGIREWWALKPGAPQPKANQQHQDNARGLVLPGYKYLGPGNGLDKGEPVNAADAAALEHDKAYDQQLKAGDNPYLKYNHADAEFQERLKEDTSFGGNLGRAVFQAKKRLLEPLGLVEEAAKTAPGKKRPVEQSPQEPDSSAGIGKSGAQPAKKRLNFGQTGDTESVPDPQPIGEPPAAPSGVGSLTMASGGGAPVADNNEGADGVGSSSGNWHCDSQWLGDRVITTSTRTWALPTYNNHLYKQISNSTSGGSSNDNAYFGYSTPWGYFDFNRFHCHFSPRDWQRLINNNWGFRPKRLNFKLFNIQVKEVTDNNGVKTIANNLTSTVQVFTDSDYQLPYVLGSAHEGCLPPFPADVFMIPQYGYLTLNDGSQAVGRSSFYCLEYFPSQMLRTGNNFQFSYEFENVPFHSSYAHSQSLDRLMNPLIDQYLYYLSKTEKMSGSPHSKAQNQQTLKFSVAGPSNMAVQGRNYIPGPSYRQQRVSTTVTQNNNSEFAWPGASSWALNGRNSLMNPGPAMASHKEGEDRFFPLSGSLIFGKQGTGRDNVDADKVMITNEEEIKTTNPVATESYGQVATNHQSAQAQAQTGWVQNQGILPGMVWQDRDVYLQGPIWAKIPHTDGNFHPSPLMGGFGMKHPPPQILIKNTPVPADPPTAFNKDKLNSFITQYSTGQVSVEIEWELQKENSKRWNPEIQYTSNYYKSNNVEFAVNTEGVYSEPRPIGTRYLTRNL
B2: TTM-019: AAV9 capsid variant, full length capsid sequence of Table 4 (protein)
chain: B1 chain with E451V, K452N, M453G, S454H, G455D
B3: TTM-018: AAV9 capsid variant, full length capsid sequence of Table 4 (protein)
chain: B1 chain with E451I, K452N, M453G, S454H, G455D, Q464L

Key:
Type in all cases: cell-based
[1] = biological target: T1, ALPL; conditions: for Luciferase Activity (fold change relative to pCMV6 transfected cells): Table 28, ALPL transfected cells; for fold increase in transduction by luciferase assay in cells expressing ALPL: relative to pCMV6 transfected cells, 24 hours post-transduction
Method: (§1) Briefly, a transduction assay was performed in that HEK 293T cells were transfected via calcium phosphate transfection with a plasmid expressing ALPL, an AAVR positive control, or a pCMV6 negative control (250 ng or 500 ng of plasmid). AAVR is a universal AAV entry factor involved in AAV transduction. […] At 24-hours post-transduction, GFP expression and luciferase activity were measured to quantify and observe AAV cellular transduction. […] The TTM-002, TTM-006, TTM-018, and TTM-019 capsid variants all comprised the SPH motif immediately subsequent to position 455, numbered relative to SEQ ID NO: 138 and a positive residue in one of the next three residues subsequent to the SPH motif.
(§2) To determine if the TTM-001 and TTM-002 capsid variants could bind to both the human ALPL protein (NM_000478.6, which is incorporated by reference herein) and the mouse ALPL ortholog (NM_001287172.1, which is incorporated by reference herein), HEK 293T cells were transfected via calcium phosphate transfection with a plasmid expressing human ALPL, the murine ortholog of ALPL, or a pCMV6 negative control. At 24 hours post-transfection, the HEK 293T cells expressing the ALPL receptor were transduced with an AAV particle comprising the TTM-001 capsid variant, the TTM-002 capsid variant, or an AAV9 control capsid protein, expressing a Luc2-GFP payload. At 24-hours post-transduction, luciferase activity (RLU) was measured to quantify AAV cellular transduction.

[2] = biological target: T2, AAVR; conditions: Table 28; AAVR transfected cells
Method: as §1

[3] = tested on: HEK 293T cells transfected with pCMV6 negative control; conditions: Table 28; pCMV6 transfected cells (negative control, reference)
Method: as §1
Three isoforms of ALPL exist, isoform 1 (Alkaline phosphatase, placental-like 2 (ALPPL2), NM_031313, which is incorporated by reference herein), isoform 2 (alkaline phosphatase, placental (ALPP), NM_001632, which is incorporated by reference herein), and isoform 3 (alkaline phosphatase, intestinal (ALPLI), NM_001631, which is incorporated by reference herein), that can also be expressed on cell surfaces via a GPI-anchor. […] The transduction assay described above was repeated with the three isoforms. HEK 293T cells were transfected via calcium phosphate transfection with a plasmid expressing ALPL, isoform 1 of ALPL, isoform 2 of ALPL, isoform 3 of ALPL, an AAVR positive control, or a pCMV6 negative control. At 24 hours post-transfection, the HEK 293T cells expressing the ALPL receptor were transduced with an AAV particle comprising the TTM-001 capsid variant or the TTM-002 capsid variant, expressing a Luc2-GFP payload. At 24-hours post-transduction, luciferase activity (RLU) was measured to quantify AAV cellular transduction.
To determine if deletion of the endoplasmic reticulum (ER) localization signal of ALPL affected transduction of the TTM-001 and TTM-002 capsid variants, HEK 293T cells were transfected via calcium phosphate transfection with a plasmid expressing ALPL, ALP with a deletion of the ER localization signal (ALPL transcript variant 2 that lacks the ER signal (NM_001127501, which is incorporated by reference herein)), or a pCMV6 negative control. At 24 hours post-transfection, the HEK 293T cells expressing the ALPL receptor were transduced with an AAV particle comprising the TTM-001 capsid variant, the TTM-002 capsid variant, or an AAV9 capsid control, expressing a GFP payload. At 24-hours post-transduction, luciferase activity (RLU) was measured to quantify AAV cellular transduction. Data was normalized to fold change in luciferase activity (RLU) compared to the pCMV6 control.
as §2
AAV entry factor involved in AAV transduction), or a pCMV6 negative control.

Molecule | Luciferase Activity (fold change relative to pCMV6 transfected cells) [1] [fold] | fold increase in transduction by luciferase assay in cells expressing ALPL [1] | Luciferase Activity (fold change relative to pCMV6 transfected cells) [2] [fold] | Luciferase Activity (fold change relative to pCMV6 transfected cells) [3] [fold]
B1 | 91 | an increase in transduction | 25 | 1
B2 | 88 | an increase in transduction | 28 | 1
B3 | 90 | an increase in transduction | 25 | 1
